Test results reported in publication PMC8189437 (Molecular Cell, 2021).

T1: Gid1 (S. cerevisiae, UniProt P53076)
T1 sequence: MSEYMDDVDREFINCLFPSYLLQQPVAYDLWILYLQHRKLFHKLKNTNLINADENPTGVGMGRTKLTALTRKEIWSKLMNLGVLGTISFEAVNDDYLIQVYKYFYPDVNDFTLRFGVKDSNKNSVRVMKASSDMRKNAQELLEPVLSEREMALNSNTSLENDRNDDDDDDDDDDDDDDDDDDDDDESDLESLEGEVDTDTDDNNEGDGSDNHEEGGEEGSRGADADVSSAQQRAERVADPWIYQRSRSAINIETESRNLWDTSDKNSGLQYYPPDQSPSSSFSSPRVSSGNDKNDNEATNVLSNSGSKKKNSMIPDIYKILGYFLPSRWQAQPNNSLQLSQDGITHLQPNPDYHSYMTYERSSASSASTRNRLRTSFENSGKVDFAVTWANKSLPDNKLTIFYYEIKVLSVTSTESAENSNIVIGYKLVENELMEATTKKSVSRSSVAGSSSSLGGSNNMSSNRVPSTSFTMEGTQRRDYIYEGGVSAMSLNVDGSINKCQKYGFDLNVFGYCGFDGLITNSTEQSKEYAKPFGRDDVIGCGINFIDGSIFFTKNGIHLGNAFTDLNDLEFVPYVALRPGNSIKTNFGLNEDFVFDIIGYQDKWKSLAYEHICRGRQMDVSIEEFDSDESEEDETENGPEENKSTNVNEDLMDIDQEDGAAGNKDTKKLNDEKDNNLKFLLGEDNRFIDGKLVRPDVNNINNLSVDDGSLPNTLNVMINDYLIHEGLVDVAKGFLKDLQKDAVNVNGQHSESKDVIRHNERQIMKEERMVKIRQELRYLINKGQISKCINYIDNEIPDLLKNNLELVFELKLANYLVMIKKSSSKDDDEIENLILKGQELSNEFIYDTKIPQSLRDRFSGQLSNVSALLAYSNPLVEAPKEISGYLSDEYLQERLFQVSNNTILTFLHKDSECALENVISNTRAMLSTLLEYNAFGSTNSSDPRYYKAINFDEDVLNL

T2: Gid9 (S. cerevisiae, UniProt P40492 1-516)
T2 sequence: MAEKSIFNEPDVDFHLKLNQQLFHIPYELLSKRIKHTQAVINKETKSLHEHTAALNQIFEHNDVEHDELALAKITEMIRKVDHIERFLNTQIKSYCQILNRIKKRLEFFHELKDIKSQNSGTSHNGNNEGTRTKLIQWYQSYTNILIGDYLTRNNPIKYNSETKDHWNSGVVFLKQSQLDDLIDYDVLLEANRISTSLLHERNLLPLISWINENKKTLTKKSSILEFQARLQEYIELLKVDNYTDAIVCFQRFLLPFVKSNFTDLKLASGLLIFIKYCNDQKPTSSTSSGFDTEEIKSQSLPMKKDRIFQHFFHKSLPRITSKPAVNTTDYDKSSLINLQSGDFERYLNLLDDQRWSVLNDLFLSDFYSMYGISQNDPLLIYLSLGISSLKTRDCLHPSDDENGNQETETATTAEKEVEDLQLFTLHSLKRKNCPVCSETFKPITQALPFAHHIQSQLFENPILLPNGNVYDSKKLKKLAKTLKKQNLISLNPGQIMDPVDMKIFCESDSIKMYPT

T3: Gid5 (S. cerevisiae, UniProt P40547)
T3 sequence: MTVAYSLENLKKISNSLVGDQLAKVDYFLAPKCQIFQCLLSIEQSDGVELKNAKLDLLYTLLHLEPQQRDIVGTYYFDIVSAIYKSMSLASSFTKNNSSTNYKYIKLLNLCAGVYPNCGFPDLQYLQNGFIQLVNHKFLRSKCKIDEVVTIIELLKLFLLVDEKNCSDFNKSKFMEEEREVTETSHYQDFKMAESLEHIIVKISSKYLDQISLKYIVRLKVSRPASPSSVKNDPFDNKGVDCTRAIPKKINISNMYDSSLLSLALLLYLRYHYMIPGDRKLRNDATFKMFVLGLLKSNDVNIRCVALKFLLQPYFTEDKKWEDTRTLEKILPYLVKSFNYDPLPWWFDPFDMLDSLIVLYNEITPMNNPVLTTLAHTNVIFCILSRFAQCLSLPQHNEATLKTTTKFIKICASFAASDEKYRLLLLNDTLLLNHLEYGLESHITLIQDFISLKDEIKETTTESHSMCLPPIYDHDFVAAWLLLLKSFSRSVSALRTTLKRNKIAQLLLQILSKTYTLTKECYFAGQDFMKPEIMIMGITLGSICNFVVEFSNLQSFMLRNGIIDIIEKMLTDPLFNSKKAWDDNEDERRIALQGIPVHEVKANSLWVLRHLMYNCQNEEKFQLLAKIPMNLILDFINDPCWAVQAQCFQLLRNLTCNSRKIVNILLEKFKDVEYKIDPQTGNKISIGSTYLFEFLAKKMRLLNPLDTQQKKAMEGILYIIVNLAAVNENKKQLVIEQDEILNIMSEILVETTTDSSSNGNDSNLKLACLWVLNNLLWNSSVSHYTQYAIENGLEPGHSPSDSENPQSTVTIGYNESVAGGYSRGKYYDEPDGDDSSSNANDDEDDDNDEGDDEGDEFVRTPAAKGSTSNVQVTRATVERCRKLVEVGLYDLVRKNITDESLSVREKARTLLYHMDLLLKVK

B1: Gid8 with a C-terminal twin-Strep tag (natural protein)
chain: MTISTLSNETTKSGSCSGQGKNGGKDFTYGKKCFTKEEWKEQVAKYSAMGELYANKTIHYPLKIQPNSSGGSQDEGFATIQTTPIEPTLPRLLLNYFVSMAYEDSSIRMAKELGFIRNNKDIAVFNDLYKIKERFHIKHLIKLGRINEAMEEINSIFGLEVLEETFNATGSYTGRTDRQQQQQQQQFDIDGDLHFKLLLLNLIEMIRSHHQQENITKDSNDFILNLIQYSQNKLAIKASSSVKKMQELELAMTLLLFPLSDSADSGSIKLPKSLQNLYSISLRSKIADLVNEKLLKFIHPRIQFEISNNNSKFPDLLNSDKKIITQNFTVYNNNLVNGSNGTKITHISSDQPINEKMSSNEVTAAANSVWLNQRDGNVGTGSAATTFHNLENKNYWNQTSELLSSSNGKEKGLEFNNYYSSEFPYEPRLTQIMKLWCWCENQLHHNQIGVPRVEN
B2: fructose-1,6-bisphosphatase (Fbp1), C-terminally 6xHis-tagged (enzyme)
chain: PTLVNGPRRDSTEGFDTDIITLPRFIIEHQKQFKNATGDFTLVLNALQFAFKFVSHTIRRAELVNLVGLAGASNFTGDQQKKLDVLGDEIFINAMRASGIIKVLVSEEQEDLIVFPTNTGSYAVCCDPIDGSSNLDAGVSVGTIASIFRLLPDSSGTINDVLRCGKEMVAACYAMYGSSTHLVLTLGDGVDGFTLDTNLGEFILTHPNLRIPPQKAIYSINEGNTLYWNETIRTFIEKVKQPQADNNNKPFSARYVGSMVADVHRTFLYGGLFAYPCDKKSPNGKLRLLYEAFPMAFLMEQAGGKAVNDRGERILDLVPSHIHDKSSIWLGSSGEIDKFLDHIGKSQ
B3: Gid2 (natural protein)
chain: MSELLDSFETEFAKFYTDSNLEETNLQKCLDHTHEFKSQLKKLKAHLNKHIQESKPEVYNKLSDKEKQKFKRKRELIIEKLSKSQRQWDHSVKKQIKYVSQQSNRFNKSTLNKLKEFDIDSVYVNKLPKETMENVNEAIGYHILRYSIDNMPLGNKNEAFQYLKDVYGITNKESTEFIEMGQIVHDLKKGDTESCLKWCSNEMESLSSNHTALSSLKFDLYTLSAMQIVKHGNPVELYYQITQNAPLDCFRHREKELMQNVVPLLTKSLIGQPIEDIDSKVNKELKECTSLFIKEYCAAKHIFFDSPLFLIVLSGLISFQFFIKYKTIRELAHVDWTTKDELPFDVKLPDFLTHFHPIFICPVLKEETTTENPPYSLACHHIISKKALDRLSKNGTITFKCPYCPVNTSMSSTKKVRFVML
B4: Gid4 (Δ1-116) (domain or fragment)
chain: TVCTNYLRPRMQFTGYQISGYKRYQVTVNLKTVDLPKKDCTSLSPHLSGFLSIRGLTNQHPEISTYFEAYAVNHKELGFLSSSWKDEPVLNEFKATDQTDLEHWINFPSFRQLFLMSQKNGLNSTDDNGTTNAAKKLPPQQLPTTPSADAGNISRIFSQEKQFDNYLNERFIFMKWKEKFLVPDALLMEGVDGASYDGFYYIVHDQVTGNIQGFYYHQDAEKFQQLELVPSLKNKVESSDCSFEFA

Key:
GST-WDR26 (human) = GST-WDR26 (human) (UniProt Q9H7D7); experiment: cryo-EM structure
Gid1 = target: T1, Gid1; experiment: cryo-EM structure
Gid9 = target: T2, Gid9; experiment: cryo-EM structure
crystal structure = target: the molecule itself; experiment: crystal structure
[1] = target: B1; experiment: cryo-EM structure
Gid5 = target: T3, Gid5; experiment: cryo-EM structure

For “GST-WDR26 (from UniProt Q9H7D7 1-661) (natural protein)”, which stoichiometry N (GST-WDR26 (human)) is on record?
The stoichiometry N was 2.

Does B1 bind (Gid1)?
Result: binds

Does B1 bind (Gid9)?
Result: binds

Which “stoichiometry N” value (crystal structure) does the source give for B2 here?
Its value is 4.

What does the source list for B3?
binding result [1]: binds; binding result (Gid9): binds

Does B4 bind (Gid5)?
Result: binds
